Data as given in patent US20220241202A1, “METHOD AND VEHICLE FOR DELIVERING AGENTS ACROSS THE BLOOD-BRAIN BARRIER” (priority 2019, published 2022).

B1: CSPα: cysteine string protein alpha, DnaJ domain-containing protein chaperone, myc-tagged, expressed in CAD cells (protein, UniProt Q9H3Z4 1-198, looked up)
DnaJ homolog subfamily C …: MADQRQRSLSTSGESLYHVLGLDKNATSDDIKKSYRKLALKYHPDKNPDNPEAADKFKEINNAHAILTDATKRNIYDKYGSLGLYVAEQFGEENVNTYFVLSSWWAKALFVFCGLLTCCYCCCCLCCCFNCCCGKCKPKAPEGEETEFYVSPEDLEAQLQSDEREATDTPIVIQPASATETTQLTADSHPSYHTDGFN
modifications: myc tag
notes: cysteine string protein alpha, DnaJ domain-containing protein chaperone, myc-tagged, expressed in CAD cells

What was measured:
Type in all cases: cell-based
CAD cells [1] = assay: EV secretion of GFP-tagged 72Q huntingtin^exon1 from CAD cells with or without β amyloid peptide; conditions: 12.5 μg/ml β amyloid peptide, added 6 hours after transfection, media collected at 48 hours
Method: CAD cells were transiently transfected with GFP-tagged 72Q huntingtin^exon1 and a vector control, CSPα, DnaJB2long, or DnaJB6long. 6 hours after transfection, the cells were treated with 12.5 μg/ml β amyloid peptide (Aβ) or left untreated. 48 hours after transfection, the media was collected, EVs were prepared, and EV secretion of GFP-tagged 72Q huntingtin^exon1 was measured.

CAD cells [2] = assay: Nanoscale flow cytometry of EVs secreted from CAD cells expressing GFP-72Q huntingtin^exon1
Method: (§1) Cell lines were transfected with the molecular chaperone CSPα and a GFP-tagged protein. CAD cells (catecholaminergic derived CNS cells) were the cell line utilized. Other cell lines, including patient-derived cell lines, may also be utilized. cDNAs encoding for myc-tagged CSPα or vector alone and GFP-72Q huntingtin^exon1 were transiently transfected with Lipofectamine™ 3000 (Invitrogen) in Opti-MEM™ medium. Media was changed to serum-free media 6 hours post-transfection. Media was collected 48 hours after transfection, spun at 300×g for 5 min to remove cell debris and evaluated without further processing by nanocyte tracking analysis, nanoscale flow cytometry analysis and dot blot analysis. For western blot analysis, EVs were isolated from the unfractionated media by exoquick precipitation solution (SBI) and solubilized in sample buffer. Following media collection, cell viability was determined using an XTT assay (New England Biolabs). When resveratrol was used, it was added to the serum-free media 6 hours post-transfection at the time of the media change.
For NTA and nanoscale flow cytometry analysis, all samples were diluted 25 fold using 0.2× phosphate buffered saline that had been filtered twice through 0.2 μm filter. For NTA analysis, all samples were analyzed using the Nanosight LM10 (405 nm laser, 60 mW, software version 3.00064). Samples were analyzed in triplicate for 60 seconds per replicate with a count range of 20-100 particles per frame. A variety of NIST (Thermo Scientific 3000 Series) standards were analyzed, each the day prior to sample analysis. The system was cleaned between each sample and checked for any sample carryover using the PBS diluent. NTA measures EVs within a size range from about 30 nm to about 1,000 nm.
Samples were similarly prepared for nanoscale flow cytometry as for NTA. All samples were analyzed using the Apogee A50 flow cytometry platform. Light scatter was provided using the 405 nm laser (75 mW); GFP signal was generated using the 488 nm laser (50 mW, 535/35) and far red signal was generated using the 630 nm laser (75 mW, 680/35). All samples were analyzed for 60 seconds. Optimization was performed to insure single EVs were being analyzed and single events were triggered by light scatter only. The system was cleaned each day prior to sample analysis and a variety of silica and polystyrene standards (Apogee 1493 standards) processed for instrument set up and QC. The silica standards were used to assess the relative size range of EVs. Nanoscale flow cytometry measures EVs within a size range from about 100 nm to about 1,300 nm. […]

CAD cells [3] = assay: Cell viability after media collection (XTT assay); conditions: various levels of CSPα expression
Method: as §1

[4] = cells express the protein, p<0.0001
[5] = presence of CSPα, no resveratrol

| Molecule | secretion of GFP-tagged 72Q huntingtin^exon1 by CSPα, DnaJB2long and DnaJB6long (CAD cells [1]) | Secretion of EVs containing GFP-tagged 72Q huntingtin^exon1 (CAD cells [2]; [4]) | percentage of EVs containing GFP-72Q huntingtin^exon1 within the total EV pool (CAD cells [2]; [4]) | increase of export of EVs containing GFP-72Q huntingtin^exon1 within the 180-240 nm subpopulation (CAD cells [2]; p<0.0001) [%] | EVs containing GFP cargo within the 180-240 nm subpopulation (CAD cells [2]; [5]) [%] | EVs containing GFP cargo within the <180 nm subpopulation (CAD cells [2]; [5]) [%] | EVs containing GFP cargo within the >240 nm subpopulation (CAD cells [2]; [5]) [%] | 180-240 nm EV export of GFP-72Q huntingtin^exon1 as a function of cellular CSPα expression (CAD cells [2]; various levels of CSPα, parallel western blot) | Cell viability after media collection (CAD cells [3]) |
| --- | --- | --- | --- | --- | --- | --- | --- | --- | --- |
| β amyloid peptide: β amyloid peptide (Aβ, AggreSure™ obtained from AnaSpec) | increased the secretion of GFP-tagged 72Q huntingtin^exon1 |  |  |  |  |  |  |  |  |
| B1 |  | dramatically increased | dramatically increased | > 400 | 1 | 0.06 | 1.6 | correlates with increases in 180-240 nm EV export | not influenced |
